Laboratory results published in patent US20120201826A1.

Target: recombinant human RANTES (huRANTES, Peprotech) (human) (UniProt P13501)
Assay: cell-based or functional assay

Sequence of recombinant human RANTES (huRANTES, Peprotech) (human) (P13501 24-91): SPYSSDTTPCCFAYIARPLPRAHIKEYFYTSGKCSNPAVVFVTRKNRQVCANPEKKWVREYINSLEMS

- Chemotaxis IC50 (nM); L1.2 cells expressing hCCR5, 1 nM huRANTES; scFv format: 21 nM
B1: A5 scFv (scFv, part only; not given: linker and tags, part only)
scFv, part: QVQLVQSGAEVKKPGASVKVSCKVSGYALSELSIHWVRQAPGKGLEWMSYIDPEDGEPIYAQKFQGRATMTEDSSTDTAYMEMGSLTSDDTAVYYCAGVTGSTSDAFDLWGRGTLVTVSSSYVLTQDPSVSVAPGQTARITCGGANLWGLGVHWYQQKSGQAPVLVVSDNSDRASGIPERFSGSNSGTTATLTLSRVEVGDEADYYCQVWDSSSDHWVFGGRTKLTVL
